Experimental data reported in paper PMC5627596.
pKd: −log10 of the molar value.

How the values were obtained:
[1] = target: heterodimeric Fcab JanusCT6 (one VEGF-binding CT6 chain, one Fc-wt chain) (human); assay: ITC; 200 µM VEGF titrated into 40 µM Janus448 or JanusCT6 in the cell; PBS (pH 7.4), 25°C; one-set-of-sites model
[2] = target: heterodimeric Fcab Janus448 (one VEGF-binding 448 chain, one Fc-wt chain) (human); assay: as above

pKd [1]: 8.40
dH [1]: -34 kcal/mol
stoichiometry N [1]: 0.5
pKd [2]: 7.59
dH [2]: -25 kcal/mol
stoichiometry N [2]: 0.5
Substance: vascular endothelial growth factor (VEGF-A), truncated version, residues 14-108 (domain or fragment)
